Experiment [1] concerns the target T1, human MASP3-His (human, UniProt P48740-2 20-728).
T1 sequence (looked up): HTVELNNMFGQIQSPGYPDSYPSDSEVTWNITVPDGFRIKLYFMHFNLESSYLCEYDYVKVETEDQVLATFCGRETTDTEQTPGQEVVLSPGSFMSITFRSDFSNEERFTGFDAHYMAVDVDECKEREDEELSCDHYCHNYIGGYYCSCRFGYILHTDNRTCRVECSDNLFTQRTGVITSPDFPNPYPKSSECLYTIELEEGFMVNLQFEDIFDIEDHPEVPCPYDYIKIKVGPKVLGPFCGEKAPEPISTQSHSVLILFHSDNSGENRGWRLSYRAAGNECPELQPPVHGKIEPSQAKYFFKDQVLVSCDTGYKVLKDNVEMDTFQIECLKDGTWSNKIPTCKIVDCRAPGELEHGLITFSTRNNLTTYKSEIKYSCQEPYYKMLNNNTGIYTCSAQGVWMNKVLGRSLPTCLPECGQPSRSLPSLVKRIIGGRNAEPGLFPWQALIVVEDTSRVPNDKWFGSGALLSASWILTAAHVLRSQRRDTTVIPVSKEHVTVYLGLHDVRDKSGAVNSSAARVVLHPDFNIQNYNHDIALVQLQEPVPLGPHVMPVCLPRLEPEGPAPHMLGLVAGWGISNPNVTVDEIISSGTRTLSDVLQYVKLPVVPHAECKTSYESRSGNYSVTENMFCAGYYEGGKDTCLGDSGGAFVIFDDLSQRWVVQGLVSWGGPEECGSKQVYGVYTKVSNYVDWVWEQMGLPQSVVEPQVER
The experiment is described as follows: cell-based or functional assay.

In experiment [2] the target is T2, MASP3 in Factor D depleted human plasma (human, UniProt P48740-2 20-728).
T2 sequence (looked up): T1 sequence (looked up)
Nature of the experiment: cell-based or functional assay.

In experiment [3] the target is T1, human MASP3-His. Nature of the experiment: SPR (Biacore 8K); antibody immobilized on CM5 chip, antigen as analyte. A general note: Surface plasmon resonance follows binding to a sensor surface in real time, without labels.
Another experiment addresses T3, monkey MASP3-His (monkey).
T3 construct: monkey species not further specified
Described as above.

The next experiment has as its target T4, mouse MASP3-His (mouse, UniProt P98064-2 25-733).
T4 construct: not shown: His tag added to the terminal
T4 sequence (looked up): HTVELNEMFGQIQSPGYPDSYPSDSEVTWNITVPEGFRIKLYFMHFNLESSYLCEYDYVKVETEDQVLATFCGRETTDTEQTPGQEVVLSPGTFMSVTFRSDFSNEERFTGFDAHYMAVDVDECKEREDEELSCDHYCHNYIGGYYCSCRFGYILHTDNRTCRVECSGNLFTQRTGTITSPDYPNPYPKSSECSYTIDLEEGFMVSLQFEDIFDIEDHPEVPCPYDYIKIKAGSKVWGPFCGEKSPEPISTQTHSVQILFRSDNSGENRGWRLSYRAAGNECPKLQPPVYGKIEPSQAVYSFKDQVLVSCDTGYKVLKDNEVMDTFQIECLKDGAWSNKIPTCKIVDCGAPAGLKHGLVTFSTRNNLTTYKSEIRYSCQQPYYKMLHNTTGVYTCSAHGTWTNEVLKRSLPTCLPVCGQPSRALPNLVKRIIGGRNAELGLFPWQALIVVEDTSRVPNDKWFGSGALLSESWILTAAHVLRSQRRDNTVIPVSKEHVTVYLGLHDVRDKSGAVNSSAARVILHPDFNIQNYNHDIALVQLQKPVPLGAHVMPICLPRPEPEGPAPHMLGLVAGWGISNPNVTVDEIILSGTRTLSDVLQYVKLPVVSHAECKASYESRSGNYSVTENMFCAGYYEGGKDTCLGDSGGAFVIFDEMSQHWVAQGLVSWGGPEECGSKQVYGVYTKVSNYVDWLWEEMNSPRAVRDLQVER
Described as above.

The target of experiment [4] is MASP2 in normal human plasma (human, UniProt O00187 16-686). The experiment is described as follows: cell-based or functional assay.
Chain of MASP2 in normal human plasma (O00187 16-686 limits assumed): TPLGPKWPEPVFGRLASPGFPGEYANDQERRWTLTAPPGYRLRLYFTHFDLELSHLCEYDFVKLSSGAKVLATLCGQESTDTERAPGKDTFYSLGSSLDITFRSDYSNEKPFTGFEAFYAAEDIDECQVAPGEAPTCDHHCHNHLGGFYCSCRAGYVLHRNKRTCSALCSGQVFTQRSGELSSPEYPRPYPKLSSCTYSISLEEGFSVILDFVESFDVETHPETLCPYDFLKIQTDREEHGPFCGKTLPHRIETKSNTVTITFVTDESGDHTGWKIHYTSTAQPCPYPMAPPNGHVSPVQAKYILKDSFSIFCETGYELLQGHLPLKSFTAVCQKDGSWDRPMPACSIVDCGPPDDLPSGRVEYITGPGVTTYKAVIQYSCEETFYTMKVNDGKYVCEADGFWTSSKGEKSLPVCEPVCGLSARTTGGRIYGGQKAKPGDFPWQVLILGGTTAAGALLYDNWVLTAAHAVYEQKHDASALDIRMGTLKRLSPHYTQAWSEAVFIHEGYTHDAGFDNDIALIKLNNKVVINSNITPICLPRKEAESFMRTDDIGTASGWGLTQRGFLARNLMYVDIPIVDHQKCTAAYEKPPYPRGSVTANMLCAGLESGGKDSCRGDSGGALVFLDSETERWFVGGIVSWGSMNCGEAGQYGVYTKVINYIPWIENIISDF
Experiment [5] concerns the target T5, human MASP2 (R444Q) - His (human, UniProt O00187 16-686).
T5 construct: not shown: His tag at the C-terminus
Nature of the experiment: ELISA; human MASP2 (R444Q)-His coated 0.1 ug/well, antibody titrated, goat anti-human IgG HRP. For orientation: An ELISA detects its analyte on a solid surface through an enzyme-linked reagent.

Substitutions are numbered along the chain they refer to.

T5 sequence (O00187 16-686 R444Q limits assumed): as the sequence (O00187 16-686 limits assumed) above, with R429Q counted along it

B1: M3-K2-8 (antibody, V domains shown)
VH: QVQLVQSGAEVKKPGASVKVSCKASGYTFTGKWIEWVRQAPGQGLEWMGEILPGSGSTDYNERFKDRATFTADTSTSTAYMELSSLRSEDTAVYYCVRSEDLWGQGTLVTVSS
VL: DIVLTQSPDSLAVSLGERATINCKSSQNLFNSRTRKNYLAWFQQKPGQSPKLLIYWASTRESGVPDRFSGSGSGTDFTLTISSLQAEDVAVYYCKQSYIPFTFGGGTKVEIK
notes: Humanized M3-K2
As usually defined, the Kd is the equilibrium constant for the complex coming apart. As usually defined, the koff is the rate constant with which the complex falls apart. For orientation: kon means a measure of how fast the partners come together. Consider B1, for which the “IC50 (nM), inhibition of MASP3 enzyme activity (fluorescent tripeptide cleavage)” value in the experiment with human MASP3-His [1] stood at 21.9 nM. In addition, the “Inhibit hemolysis IC50” value in experiment [2] came to 2.11 nM. In the experiment with human MASP3-His [3], this molecule had a Kd of 1.04 nM, a koff of 0.000189 s⁻¹ and a kon of 182000 M⁻¹ s⁻¹. In the experiment with monkey MASP3-His, this molecule gave a dissociation constant (Kd) of 0.77 nM, a koff of 0.000137 s⁻¹ and an on-rate (kon) of 178000 M⁻¹ s⁻¹. In the experiment with mouse MASP3-His, the Kd was 0.77 nM, the koff amounted to 0.000137 s⁻¹ and the kon amounted to 178000 M⁻¹ s⁻¹.

B2: M3-K1-6 (antibody, V domains shown)
VH: B1 VH with A68V, A79V
VL: B1 VL with L4M, N28S, F30L, R33V, N37T, F42Y, I99T, P100L, F101P
Regarding B2, the “IC50 (nM), inhibition of MASP3 enzyme activity (fluorescent tripeptide cleavage)” value with human MASP3-His [1] is 28.2 nM.

B3: M3-K1-1 (antibody, V domains shown)
VH: B1 VH with M48I
VL: B1 VL with L4M, N28S, F30L, R33V, N37T, F42Y, S49P, I99T, P100L, F101P
As for B3, in the experiment with human MASP3-His [1], the “IC50 (nM), inhibition of MASP3 enzyme activity (fluorescent tripeptide cleavage)” value came out at 31.5 nM.

B4: M3-K2-5 (antibody, V domains shown)
VH: B1 VH with A68V, A79V
VL: EIVLTQSPATLSVSPGERATLSCKSSQNLFNSRTRKNYLAWFQQKPGQSPRLLIYWASTRESGIPARFSGSGSGTEFTLTISSLQSEDFAVYYCKQSYIPFTFGGGTKVEIK
As to B4, the “Inhibit hemolysis IC50” value in experiment [2] amounted to 3.41 nM.

B5: M3-K1-3 (antibody, V domains shown)
VH: B1 VH
VL: B1 VL with L4M, N28S, F30L, R33V, N37T, F42Y, S49P, I99T, P100L, F101P
Regarding B5, the “IC50 (nM), inhibition of MASP3 enzyme activity (fluorescent tripeptide cleavage)” value in the experiment with human MASP3-His [1] turned out to be 24.2 nM.

B6: M3-K1-2 (antibody, V domains shown)
VH: B1 VH with M48I
VL: B1 VL with L4M, N28S, F30L, R33V, N37T, F42Y, I99T, P100L, F101P
In the case of B6, the “IC50 (nM), inhibition of MASP3 enzyme activity (fluorescent tripeptide cleavage)” value with human MASP3-His [1] came out at 31.2 nM.

B7: M3-K2-7 (antibody, V domains shown)
VH: B1 VH with M48I
VL: B1 VL with L4M
In the case of B7, in the experiment with human MASP3-His [1], the “IC50 (nM), inhibition of MASP3 enzyme activity (fluorescent tripeptide cleavage)” value turned out to be 25.2 nM.

B8: M3-K1-5 (antibody, V domains shown)
VH: B1 VH with A68V, A79V
VL: B1 VL with L4M, N28S, F30L, R33V, N37T, F42Y, S49P, I99T, P100L, F101P
Turning to B8, in the experiment with human MASP3-His [1], the “IC50 (nM), inhibition of MASP3 enzyme activity (fluorescent tripeptide cleavage)” value came out at 27.9 nM.

B9: M3-K1-4 (antibody, V domains shown)
VH: B1 VH
VL: B1 VL with L4M, N28S, F30L, R33V, N37T, F42Y, I99T, P100L, F101P
For the molecule B9, the “IC50 (nM), inhibition of MASP3 enzyme activity (fluorescent tripeptide cleavage)” value with human MASP3-His [1] was found to be 29.9 nM.

B10: M3-K2-9 (antibody, V domains shown)
VH: B1 VH
VL: B1 VL with L4M
On to B10, for which, in the experiment with human MASP3-His [1], the “IC50 (nM), inhibition of MASP3 enzyme activity (fluorescent tripeptide cleavage)” value was determined as 33.7 nM.

B11: M3-K2-10 (antibody, V domains shown)
VH: B1 VH with A68V, A79V
VL: B1 VL
For B11, in the experiment with human MASP3-His [1], the “IC50 (nM), inhibition of MASP3 enzyme activity (fluorescent tripeptide cleavage)” value worked out at 37 nM.

B12: M3-K2-6 (antibody, V domains shown)
VH: B1 VH with M48I
VL: B1 VL
notes: Humanized M3-K2
In the case of B12, the “IC50 (nM), inhibition of MASP3 enzyme activity (fluorescent tripeptide cleavage)” value in the experiment with human MASP3-His [1] was 29.5 nM. Moreover, the “Inhibit hemolysis IC50” value in experiment [2] amounted to 3.18 nM. Besides, in the experiment with human MASP3-His [3], the Kd was determined as 1.45 nM, the koff was 0.00025 s⁻¹ and the on-rate (kon) was found to be 173000 M⁻¹ s⁻¹. In the experiment with monkey MASP3-His, this molecule showed a Kd of 0.887 nM, a dissociation rate constant (koff) of 0.000147 s⁻¹ and a kon of 165000 M⁻¹ s⁻¹. In the experiment with mouse MASP3-His, this molecule had a Kd of 0.887 nM, a koff of 0.000149 s⁻¹ and a kon of 168000 M⁻¹ s⁻¹.

B13: M3-K2-11 (antibody, V domains shown)
VH: B1 VH with A68V, A79V
VL: B1 VL with L4M
notes: Humanized M3-K2
On to B13, for which, in the experiment with human MASP3-His [1], the “IC50 (nM), inhibition of MASP3 enzyme activity (fluorescent tripeptide cleavage)” value was 26.4 nM. For the same molecule, the “Inhibit hemolysis IC50” value in experiment [2] was 2.2 nM. For the same molecule, in the experiment with human MASP3-His [3], the affinity, expressed as Kd, was 1.34 nM; the off-rate constant (koff) is 0.000218 s⁻¹; the kon stood at 163000 M⁻¹ s⁻¹. For the same molecule, in the experiment with monkey MASP3-His, the Kd came to 0.86 nM, the koff was 0.000144 s⁻¹ and the kon was 167000 M⁻¹ s⁻¹. In the experiment with mouse MASP3-His, the affinity, expressed as Kd, was 0.86 nM; the koff stood at 0.000145 s⁻¹; the kon worked out at 168000 M⁻¹ s⁻¹.

B14: humM2mc51-1 (antibody, V domains shown)
VH: QVQLQESGPGLVKPSETLSLTCTVSGYSITSDYAWNWIRQPPGKKLEWMGYISYSGRTSYNPSLKSRITISRDTSKNQFSLKLSSVTAADTAVYYCSRHYGDYWGQGTLVTVSS
VL: EIVMTQSPATLSVSPGERATLSCKASQNVGTNVAWYQQKPGQSPRALIYSASYRYSGIPARFSGSGSGTEFTLTISSLQSEDFAVYFCHQYNSNPLTFGGGTKVEIK
notes: Humanized anti-MASP2 antibody; also called anti-MASP2 antibody humM2mc51-1; parent antibody humM2mc51-1
As a reminder, the EC50 is the concentration needed to bring the measured effect to its halfway point. Regarding B14, in experiment [4], the “IC50 (nM), inhibition of complement C4b deposition (mannan-coated plate, 1% human plasma)” value is 0.055 nM. In experiment [5], a half-maximal effect (EC50) was put at 0.086 nM.

B15: humM2mc51-1-ES93DA (antibody, V domains shown)
VH: B14 VH
VL: B14 VL with E1D, S93A
notes: Mutant of humM2mc51-1
In the case of B15, the “IC50 (nM), inhibition of complement C4b deposition (mannan-coated plate, 1% human plasma)” value in experiment [4] was 0.045 nM. Besides, in experiment [5], the EC50 was 0.082 nM.

B16: humM2mc51-1-S93E (antibody, V domains shown)
VH: B14 VH
VL: B14 VL with S93E
notes: VL CDR3 mutant of humM2mc51-1
B16: the “IC50 (nM), inhibition of complement C4b deposition (mannan-coated plate, 1% human plasma)” value in experiment [4] is 0.05 nM. Moreover, the EC50 in experiment [5] turned out to be 0.085 nM.

B17: humM2mc51-1-N92Q (antibody, V domains shown)
VH: B14 VH
VL: B14 VL with N92Q
notes: VL CDR3 mutant of humM2mc51-1
Regarding B17, the “IC50 (nM), inhibition of complement C4b deposition (mannan-coated plate, 1% human plasma)” value in experiment [4] amounted to 0.11 nM. This molecule showed an EC50 in experiment [5] of 0.072 nM.

B18: humM2mc51-1-N92S (antibody, V domains shown)
VH: B14 VH
VL: B14 VL with N92S
notes: VL CDR3 mutant of humM2mc51-1
Take B18: in experiment [4], the “IC50 (nM), inhibition of complement C4b deposition (mannan-coated plate, 1% human plasma)” value turned out to be 0.09 nM. The molecule further registered an EC50 in experiment [5] of 0.079 nM.

The values above are taken from patent EP4725501A1 (Staidson (Beijing) Biopharmaceuticals Co., Ltd., dated 2026).
